Measurements as given in patent US20140287419A1, “Compositions Having Dicamba Decarboxylase Activity and Methods of Use” (priority 2013, published 2014).

B1: 106 (protein, listed as Pyrococcus horikoshii)
chain: MAGMKFIKNLHVSKLVIDSMKALINGTIYTSFNPLKKVSGLVISHGKVIYAGDSEVAKKIVELSGGEIVDLKGKYVMPAFFDSHLHLDELGMSLEMVDLRGAKSIEELIQRLKRGKGRIIFGFGWDQDELGEWPTRKELNAIDKPVFIYRKCFHVAVANDKMLELLNLTPSKDFDEDTGIIKEKSLEEARKVINERVLTVEDYVYYIKRAQEHLLDLGVKSVSFMSVNEKALRALFYLEREGKLSINVFAYVTPEVLDKLESIGLGRFQGNRLTIAGVKLFTDGSLGARTALLSKPYSDDPSTSGQLVMEREELIRITEKARSLGLDVAIHAIGDKALDVALDVFETTGFPGRIEHASLVRDDQLERVKNLKVRLSVQPHFIISDWWIVERVGEERVKWVYRFKDLMKVAELGFSTDSPIEPADPWLTVDAAVNRGKGKVKLYELTKDQALDIKDALHSYTYGSARVSLASDIGKLEPGFKAEYIILDRDPLVVK
B2: 104 (protein)
chain: MANILQEPIDFLKKEELKNIDLSQMSKKERYKIWKRIPKCELHCHLDLCFSADFFVSCIRKYNLQPNLSDEEVLDYYLFAKGGKSLGEFVEKAIKVADIFHDYEVIEDLAKHAVFNKYKEGVVLMEFRYSPTFVAFKYNLDIELIHQAIVKGIKEVVELLDHKIHVALMCIGDTGHEAANIKASADFCLKHKADFVGFDHGGHEVDLKEYKEIFDYVRESGVPLSVHAGEDVTLPNLNTLYSAIQVLKVERIGHGIRVAESQELIDMVKEKNILLEVCPISNVLLKNAKSMDTHPIRQLYDAGVKVSVNSDDPGMFLTNINDDYEELYTHLNFTLEDFMKMNEWALEKSFMDSNIKDKIKNLYF
modifications: Plasmodium Vivax
B3: 14 (protein, listed as Talaromyces marneffei)
chain: MARGKVSFEEAYEIPALADKSREQAALYIAPKDLDRYLSEIKSPTGGRLDISNKNGIGYTIYSLTVPGVQGIADKAKAEKHATDVNNWIYNEIKDHRDRMGAFAALSMHDPVQAGQELERCVKKLGFHGALLNNWQHAGTDGETYIFYDHPSYDVFWQKCVELDVPVYLHPSAPSGKVFDTFFKDRRYLIGPPISFAQDVALHTMGLITNGVFDRNPKLKLILGHLGERIPQDLWRTNHWLEDVERPLADSRGDTMSRKPLLYYFKNNIYVTTSGHFSTETVKFVCDYFGADRILFSVDSPYEKIEEGAGWYDKDKDNLTKALGGPQQYLDVGRENAKKLFKLGKYHDCDA
B4: 11 (protein)
chain: MALGKIALEEAFALPRFEEKTRWWASLFSVDPETHVKEITDINKLRIEHADKYGVGYQILSYTAPGVQDIWDPVEAQALAVEINDYIAEQIRDKPDRFGAFATLSMHNPQEAASELRRCVQTYGFKGALVNDTQRAGPDGDDMIFYDNASWDIFWQTCTELDVPLYLHPRNPTGTIYEKLWADRKWLVGPPLSFAQGVSLHVLGMVTNGVFDRHPNLQLIMGHLGEHVPFDMWRINHWFEDRKKLLGLAETCKKTIREYFAQNIWITTSGHFSTTTLNFCMAEVGVDRILFSIDYPFETFEDACVWFDGAELNLSDKAKIGRDNAARLFKLGAFRDYDAKVKA
modifications: Aspergillus niger
B5: 16 (protein, listed as Staphylococcus aureus)
chain: MAQNNMEANQMKSITFEEHYVIEDIQKETMNAISADPKGVPMKVMLEGLEKKTGFTNADELSHHDERIQFMNNQDVQIQVLSYGNGSPSNLVGQKAIELCQKANDQLANYIAQYPNRFVGFATLPINEPETAAREFERCINDLGFKGALIMGRAQDGFLDQDKYDIIFKTAENLGVPIYLHPAPVNSDIYQSYYKGNYPEVTAATFACFGYGWHIDVGIHAIHLVLSGIFDRYPKLNMIIGHWGEFIPFFLERMDEALFAEHLNHPVSYYFKNNFYITPSGMLTKPQFDLVKKEAGIDRILYAADYPYIEPEKLGVFLDELGLTDEEKEKISYTNGAKLLGLSSNN
B6: 9 (protein, listed as Octadecabacter antarcticus)
chain: MATPKITFEEHFMAPGFEKHSEAFLKLIPRDQAEILTRRLGDFDGERIETMDRGGITRSIISLTGPGTQGEAVEKAVSAAQGANDFLAEKISKKPDRLGGLATLPMHDPDAAARELNRAVNDLGLQGCLVNTHTHGAYYEGTDYDPFWAEVEKLGVPFYLHPSNAYVTPHVLGGMPVLQGATWGWGVETGSHALRILFGGVFDRFPDVKLVLGHMGEALPFLRWRYDSRFGAYPMGVSLDRAPSAYFGSNILITTSGVCSHPSLIGAIGEMGADAVMFSVDYPYEDTDLAVEFIETAPLEDATRVKICHDNAARLFGMPTLAAKEGA
B7: 105 (protein)
chain: MAIDFHVHLDLYPDPVAVARACEERQLTVLSVTTTPAAWRGTLALAAGRPHVWTALGFHPEVVSERAADLPWFDRYLPETRFVGEVGLDGSPSLRGTWTQQFAVFQHILRRCEDHGGRILSIHSRRAESEVLNCLEANPRSGTPILHWYSGSVTELRRAISLGCWFSVGPTMVRTQKGAALIRSMPRDRVLTETDGPFLELDGQAALPWDVKSVVEGLSKIWQIPASEVERIVKENVSRLLGTVR
modifications: Deinococcus radiodurans
B8: 13 (protein, listed as Metarhizium acridum)
chain: MAHGKVALEEAFALPRLHEKTRWWASLFAVNPDKHAAEMTDITDIRINYMDKHGVGYTILSYTAPGVQDISDPKEAQALAVEINDYVAGAIKNHPDRFGAFATLSMRNPQEAATELKRCVTQYGFKGALVNDTQRAGEDDMIFYDGPEWDVFWSTVEELDVPFYLHPRNPTGSLYEKLWAKRKWLVGPPLSFAQGVSLHVLGMVTNGVFDRHPKLQVVLGHLGEHIPFDMWRINHWFEDVKKPLGLDCKKTIREYFQQNIWITTSGHFSTTTLQFCMAEVGADRILFSIDYPFECFADACDWYDGVPINLVDKAKIGRDNARRLFKLPEFKDSEKHVDA
B9: 10 (protein, listed as Starkeya novella)
chain: MARKIALEEHFTTPELAGKYVARPTQSDALFADIERRLADFDELRLEMMDRAEIDLMVLSVTTPGVQGVRDTGEAIRLARGANDFLAREVQKRPSRYAGFAHLAMQDAEAAATELERAVRELGFRGALINGQTNGHYLDEDQYAPFWERVQELDVPVYLHPGNMADSPAMFAHRPELGGPIWAWTAETAAHALRLVFGGTFTRFPGAKVILGHMGETLPFLLWRLDSRREFDLGEKLAPDALPSAIIKRNIAVTTSGVCDPAPLVAALQALSDDNVMFSVDYPYEDPQLASKFIETAPIGEETRAKVCHGNAERLLGL
B10: 107 (protein, listed as Rhodopseudomonas palustris)
chain: MAIIDIHGHYTTAPKALEDWRNRQIAGIKDPSVMPKVSELKISDDELQASIIENQLKKMQERGSDLTVFSPRASFMAHHIGDFNVSSTWAAICNELCYRVSQLFPDNFIGAAMLPQSPGVDPKTCIPELEKCVKEYGFVAINLNPDPSGGHWTSPPLTDRIWYPIYEKMVELEIPAMIHVSTSCNTCFHTTGAHYLNADTTAFMQCVAGDLFKDFPELKFVIPHGGGAVPYHWGRFRGLAQEMKKPLLEDHVLNNIFFDTCVYHQPGIDLLNTVIPVDNVLFASEMIGAVRGIDPRTGFYYDDTKRYIEASTILTPEEKQQIYEGNARRVYPRLDAALKAKGK
B11: 103 (protein)
chain: MAMEIPTEEIKFLKKEDVQNIDLNGMSKKERYEIWRRIPKVELHCHLDLTFSAEFFLKWARKYNLQPNMSDDEILDHYLFTKEGKSLAEFIRKAISVSDLYRDYDFIEDLAKWAVIEKYKEGVVLMEFRYSPTFVSSSYGLDVELIHKAFIKGIKNATELLNNKIHVALICISDTGHAAASIKHSGDFAIKHKHDFVGFDHGGREIDLKDHKDVYHSVRDHGLHLTVHAGEDATLPNLNTLYTAINILNVERIGHGIRVSESDELIELVKKKDILLEVCPISNLLLNNVKSMDTHPIRKLYDAGVKVSVNSDDPGMFLSNINDNYEKLYIHLNFTLEEFMIMNNWAFEKSFVSDDVKSELKALYF
modifications: Plasmodium yoelii yoelii
B12: 108 (protein, listed as Staphylococcus aureus)
chain: MAKSITFEEHYVIEDIQKETMNAISADPKGVPMKVMLEGLEKKTGFTNADELSHHDERIQFMNNQDVQIQVLSYGNGSPSNLVGQKAIELCQKANDQLANYIAQYPNRFVGFATLPINEPEAAAREFERCINDLGFKGALIMGRAQDGFLDQDKYDIIFKTAENLDVPIYLHPAPVNSDIYQSYYKGNYPEVTAATFACFGYGWHIDVGIHAIHLVLSGIFDRYPKLNMIIGHWGEFIPFFLERMDEALFAEHLNHSVSYYFKNSFYITPSGMLTKPQFDLVKKEVGIDRILYAADYPYIEPEKLGVFLDELGLTDEEKEKISYTNGAKLLGLSSNN
B13: 12 (protein, listed as Zymoseptoria tritici)
chain: MALGKVAFEEAFALPRFKERTTWWAGLFAVDPEKHTREINDINKLRIEKMDQFGVGYTLLSYTAPGVQDVWQQEEADALAREVNDHVAAEIKGHEDRLGALATLSMHDPQTASAELRRCIKDYGFKGALVNDTQRNDESGTGMIFYDGPEWDVFWSTVQELDVPFYLHPRNPTGVFMEKLWAPRKWLVGPPLSFAQGVSLHLLGMVTNGTFDRFPNLQVIIGHLGEHLPFDLWRINHWFEDIKKPLGLDCKKTIREYFNENIWITTSGHFSTPTLEYCIKEIGAERILFSIDYPFEKFEDACDWYDGVELDGPDTVKKIGRENAKKLFKLGAFKDDSA
B14: 15 (protein, listed as Metarhizium anisopliae)
chain: MAQEIAKSHETSTRFAGFAVLPMRDPEAAAKELERAVKKLGFVGALVDHKTAHGNGFCEGNEYDVLWRKAEQLAVPIYLHPSWPTEKQFQQAYAGNYSPTAAGTIGGAMFNWHSEVGHHVLRLYAAGVFDKFPKLKIIIGHFGEMIPYMLDRIREQDHRLGKTGRTFSEVYDENIWITTSGVWSLDPMRCILANTKIDHILYSVDYPFTMNERGLEWFQELEKSGLLSEEDLALIAYKNCEKLLGVKAPTQD

Assay: 14C assay with IPTG-induced recombinant E. coli cells (14CO2 capture from [14C]-carboxyl-labeled dicamba)
Conditions: IPTG-induced recombinant E. coli cells; [14C]-carboxyl-labeled dicamba; 14CO2 capture

| Molecule | Dicamba Decarboxylase Activity |
| --- | --- |
| B1 | No |
| B2 | No |
| B3 | Low |
| B4 | Low |
| B5 | High |
| B6 | No |
| B7 | No |
| B8 | No |
| B9 | Low |
| B10 | No |
| B11 | No |
| B12 | High |
| B13 | No |
| B14 | Low |

Same assay, conditions: dicamba decarboxylation activity of the protein of the given SEQ ID NO

| Molecule | Enzymatic Detection level |
| --- | --- |
| B1 | No |
| B2 | No |
| B3 | Low |
| B4 | Low |
| B5 | High |
| B6 | No |
| B7 | No |
| B8 | No |
| B9 | Low |
| B10 | No |
| B11 | No |
| B12 | High |
| B13 | No |
| B14 | Low |
